B1: LRP6-GFP [not stated] / FLAG-AP2μ [not stated] (parent complex)
chain 1: APLLLYANRRDLRLVDATNGKENATIVVGGLEDAAAVDFVFSHGLIYWSDVSEEAIKRTEFNKTESVQNVVVSGLLSPDGLACDWLGEKLYWTDSETNRIEVSNLDGSLRKVLFWQELDQPRAIALDPSSGFMYWTDWGEVPKIERAGMDGSSRFIIINSEIYWPNGLTLDYEEQKLYWADAKLNFIHKSNLDGTNRQAVVKGSLPHPFALTLFEDILYWTDWSTHSILACNKYTGEGLREIHSDIFSPMDIHAFSQQRQPNATNPCGIDNGGCSHLCLMSPVKPFYQCACPTGVKLLENGKTCKDGATELLLLARRTDLRRISLDTPDFTDIVLQLEDIRHAIAIDYDPVEGYIYWTDDEVRAIRRSFIDGSGSQFVVTAQIAHPDGIAVDWVARNLYWTDTGTDRIEVTRLNGTMRKILISEDLEEPRAIVLDPMVGYMYWTDWGEIPKIERAALDGSDRVVLVNTSLGWPNGLALDYDEGKIYWGDAKTDKIEVMNTDGTGRRVLVEDKIPHIFGFTLLGDYVYWTDWQRRSIERVHKRSAEREVIIDQLPDLMGLKATNVHRVIGSNPCAEENGGCSHLCLYRPQGLRCACPIGFELISDMKTCIVPEAFLLFSRRADIRRISLETNNNNVAIPLTGVKEASALDFDVTDNRIYWTDISLKTISRAFMNGSALEHVVEFGLDYPEGMAVDWLGKNLYWADTGTNRIEVSKLDGQHRQVLVWKDLDSPRALALDPAEGFMYWTEWGGKPKIDRAAMDGSERTTLVPNVGRANGLTIDYAKRRLYWTDLDTNLIESSNMLGLNREVIADDLPHPFGLTQYQDYIYWTDWSRRSIERANKTSGQNRTIIQGHLDYVMDILVFHSSRQSGWNECASSNGHCSHLCLAVPVGGFVCGCPAHYSLNADNRTCSAPTTFLLFSQKSAINRMVIDEQQSPDIILPIHSLRNVRAIDYDPLDKQLYWIDSRQNMIRKAQEDGSQGFTVVVSSVPSQNLEIQPYDLSIDIYSRYIYWTCEATNVINVTRLDGRSVGVVLKGEQDRPRAVVVNPEKGYMYFTNLQERSPKIERAALDGTEREVLFFSGLSKPIALALDSRLGKLFWADSDLRRIESSDLSGANRIVLEDSNILQPVGLTVFENWLYWIDKQQQMIEKIDMTGREGRTKVQARIAQLSDIHAVKELNLQEYRQHPCAQDNGGCSHICLVKGDGTTRCSCPMHLVLLQDELSCGEPPTCSPQQFTCFTGEIDCIPVAWRCDGFTECEDHSDELNCPVCSESQFQCASGQCIDGALRCNGDANCQDKSDEKNCEVLCLIDQFRCANGQCIGKHKKCDHNVDCSDKSDELDCYPTEEPAPQATNTVGSVIGVIVTIFVSGTVYFICQRMLCPRMKGDGETMTNDYVVHGPASVPLGYVPHPSSLSGSLPGMSRGKSMISSLSIMGGSSGPPYDRAHVTGASSSSSSSTKGTYFPAILNPPPSPATERSHYTMEFGYSSNSPSTHRSYSYRPYSYRHFAPPTTPCSTDVCDSDYAPSRRMTSVATAKGYTSDLNYDSEPVPPPPTPRSQYLSAEENYESCPPSPYTERSYSHHLYPPPPSPCTDSS
chain 2: MIGGLFIYNHKGEVLISRVYRDDIGRNAVDAFRVNVIHARQQVRSPVTNIARTSFFHVKRSNIWLAAVTKQNVNAAMVFEFLYKMCDVMAAYFGKISEENIKNNFVLIYELLDEILDFGYPQNSETGALKTFITQQGIKSQHQTKEEQSQITSQVTGQIGWRREGIKYRRNELFLDVLESVNLLMSPQGQVLSAHVSGRVVMKSYLSGMPECKFGMNDKIVIEKQGKGTADETSKSGKQSIAIDDCTFHQCVRLSKFDSERSISFIPPDGEFELMRYRTTKDIILPFRVIPLVREVGRTKLEVKVVIKSNFKPSLLAQKIEVRIPTPLNTSGVQVICMKGKAKYKASENAIVWKIKRMAGMKESQISAEIELLPTNDKKKWARPPISMNFEVPFAPSGLKVRYLKVFEPKLNYSDHDVIKWVRYIGRSGIYETRC

The variants in the experiment derive from B1. Description: coIP (FLAG IP, α-GFP blot densitometry).
With chain 1 Y1503A, the ratio to parent stood at 0.21.
chain 1 Y1498A, chain 1 Y1501A: the ratio to parent came to 0.58.
Consider chain 1 Y1503A, chain 1 F1506A, for which the ratio to parent worked out at 0.31.
Take chain 1 Y1498A, chain 1 Y1501A, chain 1 Y1503A, chain 1 F1506A: the ratio to parent is 0.05.
For the variant chain 1 S1560A, the ratio to parent stood at 0.69.

For the origin of these results see paper PMC12095580, “Wnt signalosome assembly is governed by conformational flexibility of Axin and by the AP2 clathrin adaptor” (Nature Communications, 2025).
